Test results published in the supplement of paper PMC12042874.
± gives the uncertainty stated by the source.

Columns and labels:
[1] = amyloid nucleation score (Sup35N fusion, yeast selection) (log enrichment); library NNK1; higher = more nucleation; inactive = no reads after selection
Summary of the method: (§1)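 For the nucleation score, DiMSum gave the log enrichment of output over input reads, centred on the mode score of non-aggregating sequences. Psi-negative yeast expressing Sup35N fused to peptides of 20 random codons were induced with 100 μM copper sulfate for 24 hours and grown 7 days at 30°C on medium lacking adenine and uracil. Input and output plasmid inserts were Illumina-sequenced, and sequences with under 100 input reads were excluded.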

[2] = amyloid nucleation score (Sup35N fusion, yeast selection) (log enrichment); library NNK2; higher = more nucleation; inactive = no reads after selection
Summary of the method: as §1

AVELI
amyloid nucleation score [1]: -0.436 ± 0.34

AVEVLGPCRNLRVWSNLDLG
amyloid nucleation score [1]: -0.072 ± 0.74

AVLWTHQYFYYYIGLAF
amyloid nucleation score [1]: -0.267 ± 0.68

AVLYLSQFGLNRKRGYTA
amyloid nucleation score [1]: 0.582 ± 0.56

AVMPHCSCTRNQRFRLVSMH
amyloid nucleation score [1]: 0.707 ± 0.85

AVSLRWCTGINGADKSCAYQ
amyloid nucleation score [1]: 1.19 ± 0.43

AVVMTLIVYALGYT
amyloid nucleation score [1]: 1.27 ± 0.3

AVYDLCD
amyloid nucleation score [1]: 0.816 ± 0.74

AWAKFCCSD
amyloid nucleation score [1]: -0.012 ± 1.1

AWDVLMHM
amyloid nucleation score [1]: 0.248 ± 0.49

AWFSISTRRIAIAWVILPCN
amyloid nucleation score [1]: -0.398 ± 0.4

AWIRGQTVSCLYYAEGLELG
amyloid nucleation score [1]: -0.448 ± 0.71

AWRDTDVASSVICG
amyloid nucleation score [1]: 0.932 ± 0.97

AWYWAMAIMRVSIKVWPLLL
amyloid nucleation score [1]: -0.713 ± 0.7

AYFIYVMYG
amyloid nucleation score [1]: -1.11 ± 1.1

AYGLNARIHTATGECLLGYA
amyloid nucleation score [1]: -0.143 ± 0.24

AYINLTPHGPRVCRFNWLAS
amyloid nucleation score [1]: -0.094 ± 0.7

AYINSSDSRSDMSRNWY
amyloid nucleation score [1]: 0.47 ± 1.1

AYKDGVTTLDLGCTGCFCYA
amyloid nucleation score [1]: 4.7 ± 0.072

AYMWLGAINICLWYWSLGR
amyloid nucleation score [1]: 3.02 ± 0.21

AYSLLMDYGFNHLFIRRFSR
amyloid nucleation score [1]: -0.067 ± 0.42

AYTCDV
amyloid nucleation score [1]: 0.03 ± 0.29

AYVASFTSIRCRAHHAPLSK
amyloid nucleation score [1]: -0.366 ± 0.3

CAACSSQLYCEWFMNALLGM
amyloid nucleation score [1]: -0.513 ± 0.44

CAIFFTASLCVCRLSAACEQ
amyloid nucleation score [1]: 1.75 ± 0.43

CAVLLGSIVHMLFAYE
amyloid nucleation score [1]: 0.132 ± 0.61

CAVQQYRNRRGNM
amyloid nucleation score [1]: 0.152 ± 0.65

CCAISMFFELHNLHVTVMGS
amyloid nucleation score [1]: 5.54 ± 0.057

CCLIHS
amyloid nucleation score [1]: 1.38 ± 0.5

CCLLDWSLDNGYNRQLRKET
amyloid nucleation score [1]: 0.219 ± 0.32

CCLTWAPTRDPFCLVTGVCR
amyloid nucleation score [1]: 0.193 ± 1.1

CCQYSWSNVMSVRKLSAWLH
amyloid nucleation score [1]: 0.04 ± 0.34

CCVNDFPTISPLSPLKRFDR
amyloid nucleation score [1]: -0.302 ± 0.54

CDRFWMELG
amyloid nucleation score [1]: -0.267 ± 0.4

CDSFVSFMPNFNFFR
amyloid nucleation score [1]: 5.03 ± 0.056

CDSYELSQTAQRNNSTLRQS
amyloid nucleation score [1]: -0.359 ± 1.9

CDVLELFKNTVGSFGGIVVS
amyloid nucleation score [1]: 0.204 ± 0.79

CDWNLSNGGYGDHARCSGSA
amyloid nucleation score [1]: 5.13 ± 0.069

CDYAVGHNVDFYYLTSNPSG
amyloid nucleation score [1]: -0.301 ± 0.53

CDYVKRLDNLLGYPLWWGRW
amyloid nucleation score [1]: 0.22 ± 0.34

CEGCDMGWLRSTNRQLMAYL
amyloid nucleation score [1]: inactive

CELGTIDHSEKMLMVNWCAG
amyloid nucleation score [1]: 0.967 ± 0.34

CESCAACMRHYRWLGFQSYI
amyloid nucleation score [1]: -1.5 ± 2.4

CFGCF
amyloid nucleation score [1]: 2.23 ± 0.17

CFGKSSVWHRYRFYIGNRAI
amyloid nucleation score [1]: -0.613 ± 0.75

CFIDQYVVTNCSLLTYFM
amyloid nucleation score [1]: 0.145 ± 0.88

CFIFFPSKIHPLICTKTRAK
amyloid nucleation score [1]: 0.446 ± 0.34

CFRELPYSLYNC
amyloid nucleation score [1]: -0.666 ± 0.42

CFSLWY
amyloid nucleation score [1]: 0.089 ± 0.29

CGIVFCSSFMDIFGPFDQTH
amyloid nucleation score [1]: 8.373 ± 0.056

CGKESRVRVKYCVFGIKKWQ
amyloid nucleation score [1]: -0.518 ± 0.53

CGLLWSCSKLH
amyloid nucleation score [1]: 1.56 ± 0.42

CGSRLGEMRAVTGPHLTPMR
amyloid nucleation score [1]: -0.233 ± 1.1

CGTIKLSPFWWSVEDHACWM
amyloid nucleation score [1]: 0.828 ± 0.57

CHFSYSI
amyloid nucleation score [1]: 0.558 ± 1.1

CHGCIGTNSEGLCTLYEDYT
amyloid nucleation score [1]: -0.594 ± 0.26

CHIWPDVLNVCAILGDLRKR
amyloid nucleation score [1]: 1.18 ± 0.16

CHWLNVYSCFSYVVTYDWSN
amyloid nucleation score [1]: 6.044 ± 0.056

CHYLVLD
amyloid nucleation score [1]: -0.186 ± 0.74

CHYVKPVFTICQVPTFIESI
amyloid nucleation score [1]: 1.43 ± 0.51

CISIACSAD
amyloid nucleation score [1]: 0.342 ± 0.73

CIYWALGRAMRLPSGTGARG
amyloid nucleation score [1]: 0.099 ± 0.95

CKCWFM
amyloid nucleation score [1]: 0.307 ± 0.52

CKFIFRKIVVGFCFDQQ
amyloid nucleation score [1]: 3.67 ± 0.1

CKRNQTTVSVVGWFI
amyloid nucleation score [1]: -0.227 ± 1.2

CKVDRFIRCGVGYLSG
amyloid nucleation score [1]: 0.039 ± 0.28

CLIESIWKLVVSNGSKYISY
amyloid nucleation score [1]: -0.181 ± 0.18

CLSELGFAVPTSWTICILCT
amyloid nucleation score [1]: 0.656 ± 0.59

CLTGGYPNRKLNLTMMWCHW
amyloid nucleation score [1]: inactive

CLVPAQGCYYGYLLTLMVER
amyloid nucleation score [1]: -0.264 ± 0.52

CLVVYHSRKAW
amyloid nucleation score [1]: 2.64 ± 0.16

CLYARLSFASGYCGLAMRCV
amyloid nucleation score [1]: 0.477 ± 0.93

YWVGIDRHFHGRQYCKAGA
amyloid nucleation score [2]: 1.11 ± 0.45

YWYWWSSWY
amyloid nucleation score [2]: 1.6 ± 0.29

YYEYGL
amyloid nucleation score [2]: -0.298 ± 0.4

YYGQSPALDRR
amyloid nucleation score [2]: -0.238 ± 0.45

YYIAI
amyloid nucleation score [2]: -0.619 ± 1

YYINVDQESGSWMRTSVKGA
amyloid nucleation score [2]: 0.207 ± 0.41

YYKFTVCWMYYLYQKSRTLL
amyloid nucleation score [2]: -1.15 ± 0.78

YYLSNPRGVHISIYREHNMS
amyloid nucleation score [2]: 6.392 ± 0.043

YYLVV
amyloid nucleation score [2]: -0.614 ± 0.56

YYMKFEAILKDQWSTVYN
amyloid nucleation score [2]: inactive

YYMLVYWDV
amyloid nucleation score [2]: 0.56 ± 0.44

YYSISGISFWFSK
amyloid nucleation score [2]: 8.381 ± 0.06

YYVDVLESISSGMFLYSQLV
amyloid nucleation score [2]: -1.95 ± 0.54

YYYVTCSILPLFYFEKGLAL
amyloid nucleation score [2]: 5.711 ± 0.037
